From the supplement of paper PMC9732359
± gives the uncertainty stated by the source.

Experiment: protein stability index of a GFP-peptide fusion (yeast GPS) (PSI 1-4); higher = more stable; sorted into four equal gates, so the index is relative within each strain
Summary of the method: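 Each library plasmid carries Cherry plus GFP with a tiled 17-residue yeast protein peptide fused downstream, and the pooled library was carried in yeast. Mid-log cultures in leucine-free medium were sorted into four equal gates by GFP/Cherry ratio. Reads from Illumina sequencing of PCR-amplified plasmids from each gate were assigned to strains by barcodes. Per peptide, the protein stability index was computed as the summed products of gate read frequency and gate number.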

Row | Sequence | protein stability index (doa10∆) | protein stability index (pdr5∆) | protein stability index (san1∆) | protein stability index (ubr1∆)
1 | ALCKNRKCQFRTPDSIS [POP1] | 2.31 ± 0.053 | 2.77 ± 0.058 | 2.28 ± 0.082 | 1.94 ± 0.036
2 | KKKDPVNQDKANNASQI [SNF12] | 3.02 ± 0.093 | 3.22 ± 0.11 | 3.19 ± 0.075 | 3.19 ± 0.068
3 | YKMVQEQLSKQRDLYKR [SMC2] | 3.1 ± 0.097 | 3.03 ± 0.087 | 2.45 ± 0.16 | 3.09 ± 0.063
4 | QEQVQDYVNKTNSHLPA [FAS1] | 2.52 ± 0.069 | 2.44 ± 0.1 | 2.62 ± 0.11 | 2.32 ± 0.064
5 | SELAVATTSVMMVNNQT [SRB6] | 3.12 ± 0.2 |  |  | 
6 | RLELLQLSPVKNSRVEL [SMC4] |  | 3.54 ± 0.25 | 3.22 ± 0.13 | 
7 | SQLDLFLRTMKLTSEET [GRR1] | 2.77 ± 0.055 | 2.7 ± 0.052 | 3 ± 0.06 | 3.09 ± 0.043
8 | VVVAETSPEKKDGGDKP [YAR002W/NUP60] | 2.85 ± 0.19 | 3.23 ± 0.24 | 2.72 ± 0.13 | 3.44 ± 0.2
9 | KAELPQWYTLQSQLNVT [MED8] | 2.77 ± 0.055 | 2.9 ± 0.047 | 2.8 ± 0.05 | 2.69 ± 0.056
10 | VPRTADRSASRAVFLFR [RPC82] |  | 3.53 ± 0.2 |  | 3.04 ± 0.17
11 | RAAKLAAPENEKPAPVR [RPS15] | 3.21 ± 0.1 | 3.15 ± 0.11 | 2.89 ± 0.073 | 3.36 ± 0.082
12 | IEQSITKNIPITHRDLH [SSN8] | 2.37 ± 0.047 | 2.92 ± 0.041 | 2.53 ± 0.046 | 2.78 ± 0.036
13 | QIQFTPLIKKIKYEPRF [SMC3] | 2.62 ± 0.061 | 2.52 ± 0.045 | 2.83 ± 0.09 | 2.43 ± 0.062
14 | TTIFVKSTTPYVSALKR [POP7] | 1.82 ± 0.07 | 2.27 ± 0.077 | 2.27 ± 0.076 | 1.97 ± 0.056
15 | TRNPDAPKGSTDPKELY [RPC40] | 3.11 ± 0.23 | 3.63 ± 0.29 |  | 3.48 ± 0.16
16 | NKHLTTLVEIFLERKCV [SSN3] | 2.6 ± 0.17 | 2.73 ± 0.2 |  | 3.2 ± 0.17
17 | KIYMLYSLQPSVDITGG [RPC34] | 1.94 ± 0.13 | 2.27 ± 0.15 |  | 2.27 ± 0.14
18 | EEIKTVDPASAPNHSPE [RRP6] | 3.01 ± 0.096 | 2.96 ± 0.072 | 3.27 ± 0.068 | 3.19 ± 0.056
19 | MKLVNFLKKLRNEQVTI [SMD1] | 1.87 ± 0.17 | 1.93 ± 0.095 | 2.04 ± 0.14 | 2.5 ± 0.11
20 | TGSDREVQRILIELLTQ [RPT3] | 3.02 ± 0.14 |  |  | 3.5 ± 0.23
21 | LSTDATSADLKSKAEEL [UBP6] | 3.17 ± 0.24 | 2.64 ± 0.13 | 2.95 ± 0.19 | 3.11 ± 0.21
22 | SPFGAYGEAPTSPGFGV [RPO21] | 2.87 ± 0.086 | 3.12 ± 0.052 | 2.98 ± 0.076 | 3.17 ± 0.034
23 | AHELQSEDVSRDHEKDT [YIL149C/MLP2] | 2.38 ± 0.085 | 2.73 ± 0.072 | 2.8 ± 0.061 | 2.68 ± 0.082
24 | QDYYIIGANIYQSPTIF [MED6] | 2.33 ± 0.056 | 2.42 ± 0.055 | 2.15 ± 0.07 | 2.46 ± 0.029
25 | GNNPSWVNNPKKRFTPH [YDL088C/ASM4] | 3.42 ± 0.23 |  |  | 
26 | MAKDNLTNLLSQLNIQL [SRP72] | 2.99 ± 0.077 | 3.13 ± 0.084 | 3.15 ± 0.074 | 2.96 ± 0.061
27 | CLSDYTKKISNFNSSLH [YJL039C/NUP192] | 1.56 ± 0.061 | 2.04 ± 0.057 | 1.72 ± 0.083 | 1.25 ± 0.036

Row | Sequence | protein stability index (doa10∆) | protein stability index (pdr5∆) | protein stability index (san1∆) | protein stability index (ubr1∆)
28 | KDSYINANTIETAKMIE [FAS2] | 3.14 ± 0.045 | 3.07 ± 0.044 | 3.18 ± 0.032 | 3.16 ± 0.044
29 | LRPGQEISLKAHCILGI [RPC40] | 2.12 ± 0.14 | 2.49 ± 0.13 | 2.14 ± 0.099 | 1.82 ± 0.12
30 | NNNNTNTQPSASGFGFG [YGR119C/NUP57] | 3.22 ± 0.081 | 2.28 ± 0.059 | 2.51 ± 0.062 | 2.89 ± 0.036
31 | TRVNAQLESYEYMVQYI [RRI1] | 3.2 ± 0.059 | 3.23 ± 0.073 | 3.42 ± 0.058 | 3.22 ± 0.076
32 | TKIPQIGDKFASRHGQK [RPB2] | 1.57 ± 0.073 | 2.3 ± 0.07 | 2.77 ± 0.084 | 1.83 ± 0.039
33 | VNDNPDIEAGDDDDNNE [DIS3] | 3.46 ± 0.19 | 3.47 ± 0.14 | 2.73 ± 0.22 | 3.33 ± 0.089
34 | TVSILQESSSLRLLEVT [POP8] | 2.2 ± 0.055 | 2.38 ± 0.048 | 2.4 ± 0.083 | 2.33 ± 0.033
35 | RNVEQKLNELDELILEA [NNF1] | 3.3 ± 0.062 | 3.29 ± 0.059 | 3.22 ± 0.039 | 3.4 ± 0.046
36 | IKIFELKLPADATTWRY [IRR1] | 2.03 ± 0.056 | 2.06 ± 0.049 | 2.26 ± 0.08 | 2.39 ± 0.046
37 | NNLFRIIAELSFLKVDP [YJL039C/NUP192] | 3.08 ± 0.054 | 3.02 ± 0.12 | 3.24 ± 0.093 | 3.07 ± 0.086
38 | FGSGTQNNNTLGGGGLF [YGR119C/NUP57] | 3.37 ± 0.083 | 2.94 ± 0.089 | 3.07 ± 0.061 | 3.11 ± 0.054
39 | KVVGPRGTLTKNLKHID [RPL9A] | 3.27 ± 0.072 | 2.98 ± 0.065 | 2.8 ± 0.086 | 2.35 ± 0.052
40 | MVMAGSKGSFINIAQMS [RPO21] | 1.43 ± 0.054 | 1.67 ± 0.049 | 1.25 ± 0.083 | 1.42 ± 0.05
41 | DEKGNEIKVGKQRFQGC [ARP9] | 2.88 ± 0.18 | 3.1 ± 0.17 | 3.06 ± 0.1 | 3.41 ± 0.1
42 | AKTLIPSLNNKISDDEL [RPB4] | 2.98 ± 0.069 | 3.1 ± 0.069 | 3.06 ± 0.06 | 3.19 ± 0.061
43 | KASELKLALGIALEGYR [RPN2] | 2.62 ± 0.15 | 2.28 ± 0.18 |  | 2.56 ± 0.097
44 | LVILKPDLNIDRNNSTN [SIN4] | 2.73 ± 0.057 | 2.23 ± 0.064 | 2.56 ± 0.065 | 2.67 ± 0.041
45 | QDNHHITKVTENLFSKE [YMR129W/POM152] | 2.86 ± 0.059 | 2.8 ± 0.066 | 2.99 ± 0.045 | 3.1 ± 0.049
46 | PAAANLDALVDCENFFN [YJL039C/NUP192] | 2.71 ± 0.085 | 2.77 ± 0.08 | 2.64 ± 0.057 | 2.7 ± 0.093
47 | VSQVRVVPNEKADDDSV [ASC1] | 2.72 ± 0.17 | 3.11 ± 0.15 | 3.06 ± 0.11 | 2.6 ± 0.08
48 | EMGKTDKSTKTAEAPTL [YOR098C/NUP1] | 3.1 ± 0.16 | 3.25 ± 0.15 | 2.89 ± 0.064 | 2.86 ± 0.14
49 | MVDVEEKSQEVEYVDPT [RPN7] | 3.06 ± 0.22 |  |  | 3.38 ± 0.16
50 | MEDEILSLGMDFIKFDQ [BRN1] | 3.23 ± 0.061 | 3.35 ± 0.052 | 3.27 ± 0.041 | 3.15 ± 0.043
51 | AIPLLKVLRKFRVQSQS [NUT1] | 1.69 ± 0.085 | 1.93 ± 0.079 | 1.69 ± 0.11 | 2.5 ± 0.053
52 | IPNRRFTLWWSPTINRA [PRP8] | 2.65 ± 0.069 | 2.28 ± 0.065 | 1.65 ± 0.052 | 2.29 ± 0.047
53 | SPTINRANVYVGFLVQL [PRP8] | 2.6 ± 0.065 | 1.89 ± 0.066 | 1.98 ± 0.1 | 2.1 ± 0.063
